Here are results for one molecule from article PMC3491808 (Journal of biomolecular NMR, 2011).

The assay addresses Pin1-PPIase (isolated catalytic PPIase domain of Pin1, residues 46-163) (human, UniProt Q13526 46-163). The assay is described as follows: NMR titration.

Non-standard residues stand in square brackets, D forms with d. No end group written: not given here. pT = C[C@@H](OP(=O)(O)O)[C@H](N)C(=O)O

For orientation: Kd means the constant that tells how readily two partners part at equilibrium. The low end stands for higher affinity, the high end for lower affinity.

Pin1-PPIase (isolated catalytic PPIase domain of Pin1, residues 46-163), sequence (Q13526 46-163): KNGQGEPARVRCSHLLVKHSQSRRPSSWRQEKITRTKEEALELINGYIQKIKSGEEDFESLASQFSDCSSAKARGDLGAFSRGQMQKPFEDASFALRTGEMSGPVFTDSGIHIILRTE

Take GVVEVDAAV[pT]PEERHLSKMQQNGY (peptide, UniProt P05067-4 659-682, looked up) [pAPP659-682 (24-residue phosphopeptide, residues 659-682 of APP phosphorylated at T668)]: the dissociation constant (Kd) was determined as 1.3 mM.
